{
  "source": "patent US20240309087A1",
  "about": "(SHANGHAI JUNSHI BIOSCIENCES, published 2024)",
  "binders": {"B1": {"name": "4E5.1 (antibody, V domains shown)", "VH": "EVMLVESGGGLVKPGGSLKLSCAASGFTFSNYIMSWVRQTPDMRLEWVATISSGGSSTYYVDRVKGGFPFSRDSVKYILYVHTSSLRSADTAIYYCAKHEDWDPLYYYSMDYWGQGTSVTVSS", "VL": "QIVLTQSPTVMSASPGDKVTMTCSASSSVSYMYWFQQKPGSSPRLLIYDTSHLAFGVPSRFSGSRSGTSYSLTISRMEAEDTATYYCQQWTTYPLTFGAGTKLELK", "notes": "murine hybridoma antibody"}, "B2": {"name": "2G10.1 (antibody, V domains shown)", "VH": "QVQLQQSGAELVKPGASVKLSCKASGYTFTSHYMYWLKQRPGQGLEWIGEINPSNGDTKFNEKFKSKATLTVDKSSSTAYMQLSSLTSEDSAVYYCTREKDAFSALDYWGQGTSVTDSS", "VL": "DIQMIQSPSSMFASLGDRVSLSCRASQGIRGHLDWYQQKPGGTIKLLIYSTSILNFGVPSRFSGSGSGSDYSLTISSLESEDFADYYCLQRNAYPLTFGAGTKLELK", "notes": "murine hybridoma antibody"}, "B3": {"name": "7C2.1 (antibody, V domains shown)", "VH": "DVKLVESGGGLVKLGGSLKLSCAASGFTFSSYHMSWIRQTPEKRLELVAAINSNGINTYYLDTVKGRFTISRDNAKNTLYLQMSSLKSEDTALYYCARHEDYYGFAMDYWGQGTSVTVSS", "VL": "SIVMTQTPKFLLVSAGDRVTITCKASQSVSNDVAWYQQKPGQSPKLLMYYVSNRFTGVPDRFTGSGYGTDFTFTINTVQAEDLAVYFCQQAYRSPWTFGGGTKLEIK"}, "B4": {"name": "3D2.1 (antibody, V domains shown)", "VH": "B3 VH with K3Q, A23V, G55D, N74I, Y80H", "VL": "DIQLTQSPASLSVSVGETVTITCRVSANIYSNLVWYHQRQGKSPQLLVYGGTNLADGVPSRFSGSGSGTQFSLKINSLQSEDFGSYHCQHFWSTPYTFGGGTKLEIK"}, "B5": {"name": "5C10.1 (antibody, V domains shown)", "VH": "DVKLVESGGGLVKLGGSLKLSCAASGFTFSSYHMSWVRQTPEKRLELVAAISRDGDSTYYPDTVKGRFTISRDDAENTLYLQMSSLKSEDTALYYCSRHEDYFGFAMDSWGQGTSVTVSS", "VL": "B3 VL with S30T, R54H, F55Y, T63I, N76S"}, "B6": {"name": "6A10.1 (antibody, V domains shown)", "VH": "B3 VH with I37V, G55V, N57S", "VL": "B3 VL with Q38E, N53H, Q89H"}},
  "note": "Positions count from the first letter of the chain named.",
  "data": [
    {"target": "T1, hCD112R mFC recombinant protein (human; murine, UniProt Q6DKI7 41-160)", "T1 construct": "range 41-160; expressed in 293E cells; also called hCD112R ECD mFC; hCD112R-ECD-mFC; not shown: murine IgG2a Fc domain (MX2-mFc vector)", "T1 sequence (looked up)": "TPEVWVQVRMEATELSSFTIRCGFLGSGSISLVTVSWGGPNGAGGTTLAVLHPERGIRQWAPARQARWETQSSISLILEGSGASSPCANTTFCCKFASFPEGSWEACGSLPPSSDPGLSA", "assay": "FACS competition, hCD112R mFc on CHO CD112 cells", "method": "Unbound antibodies were then washed with a staining buffer and the cells were incubated with 1% (v/v) goat anti-mouse IgG Fc fluorescent secondary antibodies (Jackson ImmunoResearch) prepared in a staining buffer at 4° C. for 30 min in the dark. Finally, the cells were collected by using a flow cytometer, and the fluorescent antibodies bound to the cell surface were detected. Raw data were analyzed by using FlowJo to obtain MFI values, and a four-parameter curve fitting was performed by using GraphPad Prism software to obtain IC₅₀ values.", "units": {"IC50": "µg/mL"}, "values": [
      {"binder": "B1", "IC50": 0.111},
      {"binder": "B2", "IC50": 0.261}
    ]},
    {"target": "T2, human CD112R on Jurkat CD112R effector cells (human, UniProt Q6DKI7 1-326)", "T2 sequence (looked up)": "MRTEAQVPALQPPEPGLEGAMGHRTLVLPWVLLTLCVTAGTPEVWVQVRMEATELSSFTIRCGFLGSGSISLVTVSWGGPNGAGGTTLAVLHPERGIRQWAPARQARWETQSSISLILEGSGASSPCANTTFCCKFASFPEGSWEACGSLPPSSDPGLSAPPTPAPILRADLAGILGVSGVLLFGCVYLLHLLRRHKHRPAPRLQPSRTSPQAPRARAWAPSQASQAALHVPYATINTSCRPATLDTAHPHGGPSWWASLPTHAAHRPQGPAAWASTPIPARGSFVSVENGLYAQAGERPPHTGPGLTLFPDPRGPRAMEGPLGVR", "assay": "cell-based or functional assay", "units": {"EC50, CD112R/CD112 NFAT-luciferase reporter": "µg/mL"}, "values": [
      {"binder": "B1", "EC50, CD112R/CD112 NFAT-luciferase reporter": 0.0552},
      {"binder": "B2", "EC50, CD112R/CD112 NFAT-luciferase reporter": 0.0729},
      {"binder": "B3", "EC50, CD112R/CD112 NFAT-luciferase reporter": 0.0379},
      {"binder": "B4", "EC50, CD112R/CD112 NFAT-luciferase reporter": 0.0493},
      {"binder": "B5", "EC50, CD112R/CD112 NFAT-luciferase reporter": 0.0404},
      {"binder": "B6", "EC50, CD112R/CD112 NFAT-luciferase reporter": 0.0507}
    ]},
    {"target": "T1, hCD112R mFC recombinant protein", "assay": "Biacore T200, antibody captured, hCD112R mFc injected", "method": "Biacore T200 was used to assay the binding affinity of the anti-CD112R hybridoma antibodies for the recombinant hCD112R mFc protein. […] antibody fragments (Jackson ImmunoResearch) were coupled to the surface of a CM5 chip, and the anti-CD112R hybridoma antibodies were each captured by using the chip, after which recombinant hCD112R mFc proteins at different concentrations were injected into the CM5 chip.", "units": {"Kd": "nM"}, "values": [
      {"binder": "B1", "Kd": 0.00926},
      {"binder": "B2", "Kd": 0.0302}
    ]}
  ]
}
